The assay concerns the target CLSY3-3xF-BLRP (Arabidopsis) (UniProt F4I8S3). Briefly: co-IP; streptavidin beads (M-280 Dynabeads) capture CLSY3-3xF-BLRP from flower extracts of F1 plants crossed to NRPD1-3xF WT or CYC-AAAA; anti-FLAG western blot; dilution series of the WT co-IP.
Chain of UniProt F4I8S3 (F4I8S3 whole entry): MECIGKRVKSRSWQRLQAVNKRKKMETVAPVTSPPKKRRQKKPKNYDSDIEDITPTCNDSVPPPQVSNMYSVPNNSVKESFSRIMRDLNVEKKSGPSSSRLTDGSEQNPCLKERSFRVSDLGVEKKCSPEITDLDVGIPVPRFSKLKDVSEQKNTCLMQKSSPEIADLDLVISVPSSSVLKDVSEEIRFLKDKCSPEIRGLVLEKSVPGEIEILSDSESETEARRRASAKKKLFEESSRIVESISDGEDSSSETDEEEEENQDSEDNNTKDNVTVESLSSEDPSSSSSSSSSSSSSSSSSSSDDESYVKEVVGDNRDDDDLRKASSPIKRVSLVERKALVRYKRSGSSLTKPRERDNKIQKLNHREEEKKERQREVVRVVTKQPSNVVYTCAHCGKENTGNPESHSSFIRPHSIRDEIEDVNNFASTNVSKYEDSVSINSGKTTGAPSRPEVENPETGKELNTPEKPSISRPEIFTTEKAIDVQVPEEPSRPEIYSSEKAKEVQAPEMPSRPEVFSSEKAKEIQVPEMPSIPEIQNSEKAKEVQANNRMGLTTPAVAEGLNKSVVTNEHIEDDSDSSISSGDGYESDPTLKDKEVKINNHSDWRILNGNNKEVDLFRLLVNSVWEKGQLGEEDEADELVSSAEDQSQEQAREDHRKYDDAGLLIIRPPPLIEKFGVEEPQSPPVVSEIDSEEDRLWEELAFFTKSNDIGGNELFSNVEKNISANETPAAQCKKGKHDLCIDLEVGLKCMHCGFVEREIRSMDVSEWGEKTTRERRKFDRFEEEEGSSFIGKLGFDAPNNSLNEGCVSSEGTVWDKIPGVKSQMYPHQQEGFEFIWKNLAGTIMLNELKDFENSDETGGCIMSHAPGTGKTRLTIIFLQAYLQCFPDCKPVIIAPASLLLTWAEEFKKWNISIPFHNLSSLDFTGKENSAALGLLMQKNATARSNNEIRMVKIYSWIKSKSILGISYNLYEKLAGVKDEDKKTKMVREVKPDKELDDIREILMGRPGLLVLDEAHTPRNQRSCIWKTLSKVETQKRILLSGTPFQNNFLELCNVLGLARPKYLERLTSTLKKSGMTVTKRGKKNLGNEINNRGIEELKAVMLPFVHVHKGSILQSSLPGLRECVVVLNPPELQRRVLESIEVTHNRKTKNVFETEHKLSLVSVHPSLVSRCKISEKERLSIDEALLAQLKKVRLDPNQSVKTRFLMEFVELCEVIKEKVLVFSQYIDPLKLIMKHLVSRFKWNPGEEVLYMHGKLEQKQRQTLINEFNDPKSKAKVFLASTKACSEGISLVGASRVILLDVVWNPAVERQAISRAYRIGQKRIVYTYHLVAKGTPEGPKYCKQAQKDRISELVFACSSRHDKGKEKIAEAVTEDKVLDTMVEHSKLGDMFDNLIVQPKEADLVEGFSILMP

As to “NRPD1-3xF_(CYC-AAAA) (from UniProt Q9LQ02 1-1453) (natural protein)”, the fold reduction of the co-IP against NRPD1-3xFWT was more than 8 fold.

The values above are taken from publication PMC11603163.
